What is called Kd is the concentration at which binding is half-saturated. A higher Kd goes with weaker binding.

The values below come from patent US20140113348A1.

This assay concerns the target meditope-enabled trastuzumab Fab fragment. The assay can be described thus: SPR; meditope alone on the Fab fragment, not IgG.

meditope-enabled trastuzumab Fab fragment, sequence (chain, as listed by the source limits assumed, chain 1 of 2): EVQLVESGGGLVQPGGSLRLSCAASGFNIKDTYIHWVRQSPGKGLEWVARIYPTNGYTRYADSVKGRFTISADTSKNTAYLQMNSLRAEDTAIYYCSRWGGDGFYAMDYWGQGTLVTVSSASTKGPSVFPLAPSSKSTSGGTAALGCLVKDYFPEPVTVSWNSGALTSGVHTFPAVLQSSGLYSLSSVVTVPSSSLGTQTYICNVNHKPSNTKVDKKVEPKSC
meditope-enabled trastuzumab Fab fragment, sequence (chain, as listed by the source limits assumed, chain 2 of 2): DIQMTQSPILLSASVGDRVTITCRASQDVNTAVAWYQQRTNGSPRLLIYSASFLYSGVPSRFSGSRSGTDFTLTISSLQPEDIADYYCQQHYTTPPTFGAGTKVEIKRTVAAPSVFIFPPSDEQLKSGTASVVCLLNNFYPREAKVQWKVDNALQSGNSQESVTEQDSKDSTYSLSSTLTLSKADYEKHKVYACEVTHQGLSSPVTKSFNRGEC

CQFDLSTRRLKC (modifications not checked) [cQFD meditope (cyclic …)] yielded a Kd of 1000 nM.
